How the values were obtained:
[1] = biological target: T1, human β1-AR (Homo sapiens, UniProt P08588); experiment: [125I] ZAG binding to crude membranes of CHO-K1 β1 cells
T1 construct: host or cells: CHO-K1
Method: (§1) [^125I] labelling of ZAG. One iodo bead that had been washed and dried was incubated with Na [^125I] (1 mCi per 100 μg protein) for 5 min in PBS, then ZAG (100 μg protein) was added and left for a further 15 min. The reaction was terminated by removal of the iodo bead, while free Na [^125I] was removed using a Sephadex G25 column eluted with 0.1MNaI. The [^125I] ZAG was concentrated against PBS using a Microcon microconcentrator with a filter cut-off of Mr 10,000. The specific activity of the [^125I] ZAG was 8 Cimg protein^1.
(§2) For binding studies cells were sonicated in 2 mM Tris HCl, pH7.5, containing […] and crude total membranes were pelleted by centrifugation (13,000 g; 15 min) at 4° C. Binding studies were carried out at 37° C. by incubating membranes (500 μg protein) in 0.4 ml 50 mM Tris HCl, pH 7.5, containing 0.5 mM MgCl2 for 60 min with various concentrations of [^125I] ZAG (3,000 to 15,000 cpm) in the absence or presence of 100 μM non-labelled ZAG. The membranes were then precipitated by centrifugation at 13000 g for 20 min, the supernatant was removed and the [^125I] bound to the pellet was quantitated using a Packard Corbra Model 5005 Auto-gamma counter. Binding was analysed using non-linear regression analysis (GraphPad Prism, Version 5.04). Specific binding was regarded as the amount of labelled ZAG displaced by non-radioactive ZAG.

[2] = biological target: T2, human β2-AR (Homo sapiens, UniProt P07550); experiment: [125I] ZAG binding to crude membranes of CHO-K1 β2 cells; conditions: single freeze/thaw cycle
T2 construct: host or cells: CHO-K1
Method: as §1, §2

[3] = system: ob/ob mice; experiment: ob/ob mice administered ZAG i.v. for 5 days (120 h): body weight, temperature, plasma metabolites, tissue weights; type: in vivo, mouse
Method: (§3) Animals—Mice. Homozygous obese (ob/ob) mice from the colony maintained at Aston University were used in the present study. The origin and characteristics of Aston ob/ob mice have been previously described. Male mice (20-21 weeks old, weight 90-100 g) were grouped into three per cage in an air conditioned room at 22±2° C. with a 12 h-light:12 h-dark cycle and fed a rat and mouse breeding diet (Special Diet Services, Witham, UK) and tap water ad libitum. They were administered ZAG (35 μg) in PBS (100 μl) b.d. by i.v. administration and body weight and food and water intake were monitored daily. Control mice received PBS alone. Body temperature was measured daily by the use of a rectal thermometer (RS Components, Northants, UK). All animal experiments were carried out in accordance with the U.K. Animals (Scientific Procedures) Act 1986.
Serum Metabolite Determinations. Non-esterified fatty acids (NEFA) were determined using a Wako-ASC-ACOD kit (Wako Chemical GmbH, Neuss, Germany). Triglycerides were determined using a Triglyceride kit (Sigma Chemical Co., Poole, United Kingdom) and 3-hydroxybutyrate by a quantitative enzymatic determination kit (Sigma). Glucose was measured using a glucose analyser (Beckman, Irvine, Calif.) and glycerol was determined enzymatically using the method of Wieland as described in “Methods of Enzymatic Analysis” (Ed. Bergmeyer, H. U.) Vol. 3, pp1404-1409, published by Academic Press, London (1974).

[4] = system: ob/ob mice; experiment: ob/ob mice treated with ZAG, 21 day study; type: in vivo, mouse
Method: FIG. 7A is a graphical diagram showing weight loss of the ob/ob mice during the 21 day study. ZAG was injected at days 1, 4, 5, 8, 13, 16, 18, and 19; PBS was injected at the same time points.
as §3
After 21 days, the plasma metabolite levels in the ob/ob mice were observed (Table 2), with monitored parameters shown in Table 3. […] It was noted that there is much more insulin in the pancreas in ZAG treated animals showing the drop in plasma insulin, which is not due to lower insulin production (e.g., as would happen with a toxin to pancreatic beta cells), but rather due to the fact that less insulin is needed to control blood glucose in the ZAG treated animals.

T1 sequence (P08588 whole entry): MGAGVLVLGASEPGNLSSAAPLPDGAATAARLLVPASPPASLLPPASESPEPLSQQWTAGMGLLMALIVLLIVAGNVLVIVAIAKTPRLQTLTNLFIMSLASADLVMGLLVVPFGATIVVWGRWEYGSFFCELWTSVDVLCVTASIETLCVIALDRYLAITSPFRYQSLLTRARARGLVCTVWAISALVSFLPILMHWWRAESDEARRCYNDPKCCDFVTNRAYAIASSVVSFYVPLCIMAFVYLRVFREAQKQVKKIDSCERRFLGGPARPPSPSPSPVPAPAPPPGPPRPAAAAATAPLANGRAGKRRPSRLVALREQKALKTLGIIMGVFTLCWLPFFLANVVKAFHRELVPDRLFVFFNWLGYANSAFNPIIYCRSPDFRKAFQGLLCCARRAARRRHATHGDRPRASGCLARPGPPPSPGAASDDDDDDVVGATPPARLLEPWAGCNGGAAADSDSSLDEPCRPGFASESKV

B1: ZAG: recombinant full length human zinc-α2-glycoprotein (SEQ ID NO: 1) secreted by transfected HEK293F cells; lipid mobilizing factor (protein, listed as Homo sapiens)
chain: QENQDGRYSLTYIYTGLSKHVEDVPAFQALGSLNDLQFFRYNSKDRKSQPMGLWRQVEGMEDWKEDSQLQKAREDMETLKDIVEYYNDSNGSHVLQGRFGCEIENNRSSGAFWKYYYDGKDYIEFNKEIPAWVPFDPAAQITKQKWEAEPVYVQRAKAYLEEECPATLRKYLKYSKNILDRQDPPSVVVTSHQAPGEKKKLKCLAYDFYPGKIDVHWTRAGQVQEPELRGDVLHNGNGTYQSWVVVAVPPQDTAPYSCHVQHSSLAQPLVVPWEAS
Question: What does the source list for B1?
Answer: binding to the β1-AR [1]: no binding; effect of freeze-thawing on binding to β2-AR [2]: eliminated binding; oxygen uptake by BAT ([3]; ob/ob mice after ZAG administration): three-fold increase; BAT weight ([3]; ob/ob mice treated for 120 h): 0.73 ± 0.12 p < 0.01 g; Gastrocnemius weight ([3]; ob/ob mice treated for 120 h): 1.12 ± 0.14 p < 0.01 g; Glucose (plasma) ([3]; ob/ob mice treated for 120 h): 20.3 ± 0.8 p < 0.01 mmol/L; Glycerol (plasma) ([3]; ob/ob mice treated for 120 h): 429 + 36 p < 0.001 μmol/L; Insulin (plasma) ([3]; ob/ob mice treated for 120 h): 26.3 ± 0.52 p < 0.001 ng/mL; Insulin Pancreas ([3]; ob/ob mice treated for 120 h): 16.3 ± 3.1 p = 0.0042 pg/g pancerase; NEFA (plasma) ([3]; ob/ob mice treated for 120 h): 0.23 ± 0.05 p < 0.001 mEq/L; Soleus weight ([3]; ob/ob mice treated for 120 h): 0.80 ± 0.09 p < 0.01 g; TG (plasma) ([3]; ob/ob mice treated for 120 h): 0.9 ± 0.1 p < 0.05 mmol/L; adverse effects after administration ([3]; ob/ob mice, 35 μg i.v.): No adverse effects were observed; decrease in plasma insulin levels ([3]; ob/ob mice, 5 days): 36%; blood glucose ([3]; ob/ob mice, Day 5 (value before the further drop)): 2.03 mM; rise of body temperature ([3]; ob/ob mice, after 4 days of ZAG): 0.4 °C; weight difference between ZAG and PBS groups ([3]; ob/ob mice, after 5 days): 3.5 g; weight of the gastrocnemius muscles ([4]; ob/ob mice): 0.7 ± 0.1 g; weight of brown adipose tissue ([4]; ob/ob mice (FIG. 7)): 0.52 ± 0.08 g; BAT weight ([4]; ob/ob mice, Day 21): 0.41 ± 0.35 g; Gastrocnemius weight ([4]; ob/ob mice, Day 21): 0.39 ± 0.12 g; Glucose (plasma) ([4]; ob/ob mice, Day 21): 15.2 ± 2.1 mmol/L; Glycerol (plasma) ([4]; ob/ob mice, Day 21): 450 ± 36.2; Insulin (plasma) ([4]; ob/ob mice, Day 21): 28.5 ± 0.34 ng/mL; Insulin Pancreas ([4]; ob/ob mice, Day 21): 14.5 ± 2.5 pg/g pancerase; NEFA (plasma) ([4]; ob/ob mice, Day 21): 0.22 ± 0.06 mEq/l; Soleus weight ([4]; ob/ob mice, Day 21): 0.18 ± 0.07 g; Triglycerides (plasma) ([4]; ob/ob mice, Day 21): 0.89 ± 0.08 mmol/L; blood glucose ([4]; ob/ob mice, Day 21): 15.2 mM; Finish weight ([4]; ob/ob mice, Day 21, in g): 83.95 ± 2.2; peak body temperature ([4]; ob/ob mice, just before maximum weight loss): 38.1 °C

Reference: patent US10077295B2, “Glycoproteins having lipid mobilizing properties and therapeutic uses thereof” (Aston University, priority 2010, dated 2018)
